# Laboratory results as given in article PMC3571961.
# Tests used:
# [1] = target: C-terminal domain of minor ampullate spidroin (CTDMi) from N. antipodiana (Nephila antipodiana); experiment: SEC; Superdex 75 PG, 120 ml, 10 mM sodium phosphate pH 6.8 without NaCl, 1 ml/min; apparent molecular weight against standards
# [2] = target: Tri-domain miniature fibroin RP-LK-CTDMi of minor ampullate spidroin from N. antipodiana (Nephila antipodiana); experiment: as above
stoichiometry N [1],stoichiometry N [2],Substance
2,–,C-terminal domain of minor ampullate spidroin (CTDMi) from N. antipodiana (domain or fragment)
–,2,Tri-domain miniature fibroin RP-LK-CTDMi of minor ampullate spidroin from N. antipodiana (domain or fragment)
